Here are results for eight molecules from US10556936B2, “Immunogenic proteins and fragments thereof from allergenic mites” (ALK-ABELLÓ A/S, priority 2016, dated 2020).

Common to all, as to type: cell-based, human
The test system of data set [1] is HDM specific T-cell lines from HDM allergic donors. The data set can be described thus: T cell reactivity of protein: IL-5/IFNg FluoroSPOT or 72 h T cell proliferation in HDM specific T-cell lines (Example 2). To be noted: responding donors of tested HDM allergic donors. The text has this:
PBMCs from European HDM-allergic individuals were recruited in the Copenhagen region (defined by clinical history of allergy to house dust mite and specific IgE to group 1 and group 2 major allergens from Der p and/or Der f and with measured specific IgE (CAP) >0.7 kU/L towards Der p/f 1 or Der p/f 2. In addition, PBMCs from 10 US HDM-allergic individuals were recruited in San Diego (defined by Der p extract IgE titers greater than 0.35 kUA/L). PBMCs were isolated from whole blood by density gradient centrifugation according to manufacturers' instructions (Ficoll-Hypaque, Amersham Biosciences, Uppsala, Sweden). Der p- and Der f-specific extract IgE titers were determined using the ImmunoCAP system (Thermo Fisher, Uppsala, Sweden). In a separate series of experiments, pooled plasma from 10 European and 10 American HDM atopic individuals from the San Diego region, respectively, was utilized to run 2D immunoblots to elucidate IgE and IgG reactivity towards the proteins, which had at least one peptide with positive T cell response.
T cells reactivity was determined by establishment of HDM specific T-cell lines according to standard methods. In short, PMBCs from HDM allergic donors were cultured for 2-3 weeks in the presence of house dust mite allergen extract. The responses to proteins having SEQ ID NOs 1-44 were assessed by IL-5/IFNg FluoroSPOT (Mabtech FS-0108-10) according manufacturer protocol, (after 2 weeks) or proliferation in a standard 72 h T cell proliferation assay, as described in Henmar H et al., Clin Exp Immunol 2008; 153(3):316-23. (after 3 weeks). In addition these established T cell lines were used for further characterization and epitope mapping.

Data set [2] has as its system T cell lines obtained from HDM allergic individuals and non-allergics. The experiment in a line: In vitro T cell proliferation test in T cell lines (Example 3). The conditions noted are these: 0.5 or 2 ug/ml, 72 h; for % responders of in-vitro T cell proliferation test, Allergic: T cell lines from HDM allergic individuals (n=30); for % responders of in-vitro T cell proliferation test, Non-allergics: T cell lines from non-allergics (n=8). The essentials: (§1)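 Freshly isolated PBMC (5×10^6/ml) from mite-allergic patients or non-allergics cultured 5 days with test protein up to 10 ug/ml; IFN-gamma, IL-9, IL-10, IL-17, IL-31 in supernatants by multiplex immunoassay. T cell lines, raised 3 weeks on HDM extract, tested at 0.5 or 2 ug/ml protein in 72 h proliferation assay.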

For data set [3], the system named is PBMC cells obtained from mite allergic patients and non-allergics. The data set can be described thus: Ex vivo stimulation of PBMC: cytokine production (IFN-gamma, IL-9, IL-10, IL-17, IL-31). The gist of the method: as §1
In data set [4] the test system is basophils in whole blood from HDM allergic donors. The experiment in a line: Basophil Activation Test (BAT). To be noted: blood from HDM allergic individuals (n=14). The gist of the method:
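Basophil activation was read by flow cytometry as increased surface activation markers. The stimulus was a 1 h exposure of blood from 14 HDM-allergic donors to test proteins or major mite allergens at graded concentrations (e.g. 1–1000 ng/ml).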

B1: 12 (protein, listed as Dermatophagoides pteronyssinus)
chain: MSISAHGGGLVNGIAGMENKFTVFTSGKPVSGLTVAFEGPTKPEINFNSTKDGSVDVGYIPKAGGQYKIHIKYEGKEIVGSPFKCNISGDESTHRKLTEKVKVGGPNISTGKVNQDNQLTIDCKEAGITGGISFAMEGPAKVEVSFRNNNDGTITVIYKPPTPGDYKLHLKFNDIHLPGSPYPIVVSA
With B1, in data set [1], the “% T cell responding donors to protein” value is 5 of 24.

B2: 16 (protein, listed as Dermatophagoides pteronyssinus)
chain: MSKPIFYYHPFSGPCRTVSTVAKILNVDMEMKKLDLLTKEHLNPEFLKVNPFHKVPTFVDSDGFVVDESRVIAMYLVESRKPDSFLYPKNDLKKRIQIDRWLHYDINLSTTISAPMFCVFRGHQVQDYQVEQGKETLKTLDGVMQSFEGKFLTGADQFTLADIAMYFSLNTMEVYPKYFKFDDYPNLKSWYHRVAEALKQYDTEGTIPKAIETMKQFIQQRAAEAEKH
Regarding B2, the “% T cell responding donors to protein” value in data set [1] is 3 of 24.

B3: 4 (protein, listed as Dermatophagoides pteronyssinus)
chain: QVYCNGAAIVSAARSQIGVPYSWGGGGIHGKSRGIGEGANTVGFDCSGLAQYSVYQGTHKVLARVASGQYSDPKCHHVAYGSHQPGDLVFFGNPIHHVGIVSAHGRMINAPHTGTNVREENIWSDHIANVARCW
Consider B3, for which, in data set [1], the “% T cell responding donors to protein” value is 8 of 24.

B4: A003: house dust mite protein; SEQ ID NO: 2 (Der f), 3 (Der p), 305 (Blo t) (protein)
chain: MAIDGKYQMESSEHFEEFVKEMGLDVDMTNVDLSKTSTMEICKDGDVYHIKSETAGIAHEIKFKVGEEFEDDMNGHKFKNVVTMECDNKMVQKKTSADGGKVVNVVREFTDAGCTVKSTYNTVTWTRVYKRM
Regarding B4, in data set [2], the “% responders of in-vitro T cell proliferation test, Allergic” value came out at 3% and the “% responders of in-vitro T cell proliferation test, Non-allergics” value is given as 0%. Besides, in data set [3], the “% HDM allergic individuals with cytokine production in ex-vivo T cell assay IL-5” value was 6%, the “% HDM allergic individuals with cytokine production in ex-vivo T cell assay IL-9” value came out at 0%, the “% HDM allergic individuals with cytokine production in ex-vivo T cell assay IL-10” value was found to be 19% and the “% HDM allergic individuals with cytokine production in ex-vivo T cell assay IL-13” value is 13%. Also, in data set [3], the “% HDM allergic individuals with cytokine production in ex-vivo T cell assay IL-17” value is recorded as 13%, the “% HDM allergic individuals with cytokine production in ex-vivo T cell assay IL-31” value was 0%, the “% HDM allergic individuals with cytokine production in ex-vivo T cell assay INF-g” value stood at 0% and the “% non-allergic individuals with cytokine production in ex-vivo T cell assay IL-5” value was determined as 0%. Besides, in data set [3], the “% non-allergic individuals with cytokine production in ex-vivo T cell assay IL-9” value is reported as 0%, the “% non-allergic individuals with cytokine production in ex-vivo T cell assay IL-10” value stood at 17%, the “% non-allergic individuals with cytokine production in ex-vivo T cell assay IL-13” value was 0% and the “% non-allergic individuals with cytokine production in ex-vivo T cell assay IL-17” value is on record as 17%. Further, in data set [3], the “% non-allergic individuals with cytokine production in ex-vivo T cell assay IL-31” value was determined as 0% and the “% non-allergic individuals with cytokine production in ex-vivo T cell assay INF-g” value stood at 0%. Further, in data set [4] (1 ng/ml), the “# of individuals of 14 with positive BAT test” value was 0. For the same molecule, the “# of individuals of 14 with positive BAT test” value in data set [4] (10 ng/ml) is given as 0. Also, the “# of individuals of 14 with positive BAT test” value in data set [4] (100 ng/ml) is given as 0. Moreover, in data set [4] (1000 ng/ml), the “# of individuals of 14 with positive BAT test” value is 1.

B5: 44 (protein, listed as Dermatophagoides pteronyssinus)
chain: VVIKVENLPEQCDYTQCPKWSKDDINVHLVAHTHDDVGWLKTVEQYYYGLKNDIQRAGVQYILDTMIEELIRNKDRRFIYVEIAFFWKWWQEQNEEQRMIVKELVRTGQLEFINGGWSMPDEAATHYNSLIDQSTWGLRQLNDTFGRCGHPKVTWQIDPFGHSKEMANLYAQMGYDALFFARQDYQDRENRMSNRTLEHVWQGSDDLGEIGDIFTGMMFSGYGPIEFNWDITNGPEDAVVDNPESEEYNVPDKIRRFVEKAKYFGQFYATNHFMFPMGTDFQYTDAHTWFKNLDKLINAVNKAGKGVRAFYSTPSCYAHALYEQNRTWTTKTDDFFPYASDEHAYWTGYFTSRPAIKRMERIGNNLLQACKQLDVLADNNGRFEMNLTKMREAMGVMQHHDAVTGTEKQHVAFNYAKMLDSAMLQCRHIINESYKKLLPKSSTSEHEFCPYLNISSCPTTEMGESRIIYLYNPLGHRLINHTVRLPIKNGYYYRIQDQNNQSVPSVLVPIPEFVQKIPGRKSVATKELVFRVPVIEPLGITTMYMYVDKNEQPNSAIEIKGENPDDNDDKSKWLVLTKNLIVEFYSNGTISRISIDKLHQSISISNEFRLYHGAGGTGRHSGAYIFRPNEQKTFPVTNKIKSTFFIDRKYHIVQEVHQQFDSSFVGQIIRMDKYNDNVEFDFVVGPIPVNDQIGKEIIASYKTDLENDETFYTDANGRQMLRRRWNYRPSWKYNVQEPISGNYYPVNSRIAIRDEKQSLQMTIMTDRSQGGSLSPEQINGSIDIMIHRRLLHDDYFGVGEALNEPGVDGHGLVIRGKHLLLLNSIKQSASEHRPLAQQMFMEPIISFTSIESNKQAEKQSNQYIGLNNDLPSNVHLLTLEQWHSKRYLLRLEHFYQSNEDTELSKPVKLSLRHLFKSFEIIAVEELTLGANQPISSLKNRLHYRYNRPLEQRQQQQSSLLLDDPKIEGENFDIHLSPMQIRTFLIDIKRN
B5: the “% T cell responding donors to protein” value in data set [1] was 7 of 24.

B6: 24 (protein, listed as Dermatophagoides pteronyssinus)
chain: DPVQQRPTLRGVTVRVGPFVKENNGKFEGFIPDLVQAISEKVGFDYTLYLSPDGRYGNVISDGNVTGMIGEVYNKKADFAAADLTMTEARENYITFTEPFMINQLAALIRREDAEGLNTLEDLAKAQETFPKRKRIVLGTLRNGATNYFLSKSDDPLAKKIYEQIKADDQSVVKSISEGVERVDKQGGYAFIMESASAEHEIANNCKLTMLLDWRNLFPRKYAFALPKDSPYLEHFNNAIKQLNSEGKIAELRRKYWANNCAENKTKDDKN
On to B6, for which the “% T cell responding donors to protein” value in data set [1] is given as 3 of 24.

B7: 20 (protein, listed as Dermatophagoides pteronyssinus)
chain: NWQMVWQDEFNGGHLDQNHWEFETGGGGWGNNELEFYTANRSQNVRVENGHLVIDVRVESYGGRDFTSGRIHSKQAWAYGKFEARARLPSGHHLWPAIWMFPRDSKYGPWAASGEIDIMEYRGDVHDKIEGTIHYGGQWPNNIYTGSGPHHFNVDFSKDFHNFAVEWDTKEIRWYMDGNKYFSVNIDRNMWSGKGNNPYNKNGQPFDQPFRWILNVAVGGNFFGPGPYVTPDQARHWQKHTMEIDYVRVYQWR
For the molecule B7, the “% T cell responding donors to protein” value in data set [1] was 6 of 24.

B8: A007: house dust mite protein; SEQ ID NO: 30 (Der f), 31 (Der p), 306 (Blo t) (protein)
chain: MAKFNYLPVDVQEELRNTANAIVSVGKGILAADESTGTIGKRFADINVENVEQNRQAYRQLLFYSEGIEQYISGVILFDETVYQKDDKGVPFPELLKKKGIIPGIKVDTGVVTLQGTNGESTTQGLDNLTKRCQEYYNQGCRFAKWRCVLKIGQDEPSSLAIVENANVLARYASCCQQARIVPIVEPEILPDGDHNLERCQKVTETVLAAVYKALNDHHVYLEGTLLKPNMVTPGQSCPQKASPQEVAQATVTALQRTVPAAVPGIVFLSGGQSEEEASVNLNAINQYQGKKPWALSFSYGRALQASALRAWQGKPENIGAGQKELLQRAKANVLAHKGQYVAGSIPSLASAKSNFVAQHKY
B8: in data set [2], the “% responders of in-vitro T cell proliferation test, Allergic” value is listed as 21% and the “% responders of in-vitro T cell proliferation test, Non-allergics” value came to 38%. Further, in data set [3], the “% HDM allergic individuals with cytokine production in ex-vivo T cell assay IL-5” value worked out at 6%, the “% HDM allergic individuals with cytokine production in ex-vivo T cell assay IL-9” value was 6%, the “% HDM allergic individuals with cytokine production in ex-vivo T cell assay IL-10” value was 44% and the “% HDM allergic individuals with cytokine production in ex-vivo T cell assay IL-13” value worked out at 19%. Also, in data set [3], the “% HDM allergic individuals with cytokine production in ex-vivo T cell assay IL-17” value was 38%, the “% HDM allergic individuals with cytokine production in ex-vivo T cell assay IL-31” value worked out at 0%, the “% HDM allergic individuals with cytokine production in ex-vivo T cell assay INF-g” value turned out to be 31% and the “% non-allergic individuals with cytokine production in ex-vivo T cell assay IL-5” value amounted to 0%. Besides, in data set [3], the “% non-allergic individuals with cytokine production in ex-vivo T cell assay IL-9” value is recorded as 0%, the “% non-allergic individuals with cytokine production in ex-vivo T cell assay IL-10” value is reported as 83%, the “% non-allergic individuals with cytokine production in ex-vivo T cell assay IL-13” value turned out to be 0% and the “% non-allergic individuals with cytokine production in ex-vivo T cell assay IL-17” value was found to be 67%. Besides, in data set [3], the “% non-allergic individuals with cytokine production in ex-vivo T cell assay IL-31” value is 0% and the “% non-allergic individuals with cytokine production in ex-vivo T cell assay INF-g” value was 33%. For the same molecule, the “# of individuals of 14 with positive BAT test” value in data set [4] (1 ng/ml) turned out to be 0. In data set [4] (10 ng/ml), the “# of individuals of 14 with positive BAT test” value was found to be 0. The “# of individuals of 14 with positive BAT test” value in data set [4] (100 ng/ml) came out at 0. In addition, the “# of individuals of 14 with positive BAT test” value in data set [4] (1000 ng/ml) was determined as 0.
